Experimental data as given in patent US20240277845A1 (XYPHOS BIOSCIENCES, published 2024).

B4: Fc-iNKG2D.YA (Fc fusion, human, not shown: a dimerising Fc or GST)
chain: IEGRFLNSLFNQEVQIPLTESYCGPCPKNWICYKNNCYQFFDESKNWYESQASCMSQNASLLKVYSKEDQDLLKLVKSAHWMGLVHIPTNGSWQWEDGSILSPNLLTIIEMQKGDCALYASSFKGYIENCSTPNTYICMQRTV
notes: range 78-216; also called Y152A mutant

What was measured:
Fc-iNKG2D.YA [1] = biological target: B4; experiment: ELISA; 'iNKG2D.YA capture; CD20(Rit)-MicAb titration; anti-kappa-HRP detection'
Fc-iNKG2D.YA [2] = biological target: B4; experiment: Octet BLI; Fc-iNKG2D.YA captured on AHC tips, two-fold dilution series of MicAbody from 50 nM
Description: (§1) YA were captured with anti-human IgG Fc capture (AHC) biosensor tips then associated with a two-fold dilution series of MicAbody starting at 50 nM. The y-axes corresponding to binding responses were set to the same scale for all sensograms.

mouse NKG2D = biological target: T1, mouse NKG2D (mouse, UniProt O54709 94-232, limits assumed); experiment: ELISA on mouse NKG2D, MicAbody titrated; y axis 'Mouse NKG2D binding' (absorbance)
T1 construct: also called mouse wild-type NKG2D
T1 sequence (looked up): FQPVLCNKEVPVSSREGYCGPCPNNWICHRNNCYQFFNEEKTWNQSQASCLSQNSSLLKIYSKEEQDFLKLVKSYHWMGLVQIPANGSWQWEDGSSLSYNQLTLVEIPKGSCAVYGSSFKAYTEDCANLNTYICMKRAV

Fc-iNKG2D.YA [3] = biological target: B4; experiment: ELISA; wells coated with Fc-iNKG2D.YA, Rituximab.LC-U2S3 titrated
Fc-iNKG2D.YA [4] = biological target: B4; experiment: Octet BLI, Fc-iNKG2D.YA on AHC tips, His-tagged monomer (FIG. 4C)
Fc-iNKG2D.YA [5] = biological target: B4; experiment: Octet BLI; Fc-iNKG2D.YA captured on AHC tips, dilution series of His-tagged monomeric ligand
Fc-wtNKG2D [6] = biological target: T2, Fc-wtNKG2D (human, UniProt P26718 78-216); experiment: Octet BLI; Fc-wtNKG2D captured on AHC tips, dilution series of His-tagged monomeric ligand
T2 construct: range 78-216; NKG2D ectodomain fused to the C-terminus of human IgG1 Fc; dimeric secreted protein; biotinylated in some ELISAs; also called wild-type NKG2D; Fc-NKG2D
T2 sequence: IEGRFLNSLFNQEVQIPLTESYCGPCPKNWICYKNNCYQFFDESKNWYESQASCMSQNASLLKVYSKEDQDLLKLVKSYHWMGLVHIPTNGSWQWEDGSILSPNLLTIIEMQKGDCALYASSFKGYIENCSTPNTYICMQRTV

Fc-wtNKG2D [7] = biological target: T2, Fc-wtNKG2D; experiment: ELISA on wild-type NKG2D (FIG. 19); ELISA on wild-type NKG2D (FIG. 19), Rituximab light-chain fusion
MICB-Fc = biological target: T3, MICB-Fc (UniProt Q29980 23-298, limits assumed); experiment: ELISA; ligand-Fc coated, biotinylated Fc-iNKG2D.YA titrated, streptavidin-HRP; x axis printed as 'nM ligand-Fc'
T3 construct: Bought reagent; also called Ligand-Fc fusion (R&D Systems); not shown: Fc of the bought fusion, not described
T3 sequence (looked up): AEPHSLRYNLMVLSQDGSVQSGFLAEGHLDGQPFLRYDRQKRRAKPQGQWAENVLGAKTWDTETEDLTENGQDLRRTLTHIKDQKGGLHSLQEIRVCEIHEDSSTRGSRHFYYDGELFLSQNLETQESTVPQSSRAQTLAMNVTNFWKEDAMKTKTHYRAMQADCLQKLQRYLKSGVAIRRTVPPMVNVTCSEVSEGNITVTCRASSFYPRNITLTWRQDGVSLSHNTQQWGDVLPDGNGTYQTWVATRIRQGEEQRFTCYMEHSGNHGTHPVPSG

ULBP3-Fc = biological target: T4, ULBP3-Fc (UniProt Q9BZM4 30-217); experiment: as above
T4 construct: Bought reagent; also called Ligand-Fc fusion (R&D Systems); not shown: Fc of the bought fusion, not described
T4 sequence (looked up): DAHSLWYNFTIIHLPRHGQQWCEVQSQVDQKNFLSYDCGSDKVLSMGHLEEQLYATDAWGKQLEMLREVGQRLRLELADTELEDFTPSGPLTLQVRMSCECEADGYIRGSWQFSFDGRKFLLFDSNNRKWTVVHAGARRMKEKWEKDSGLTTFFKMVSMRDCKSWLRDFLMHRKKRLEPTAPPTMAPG

ULBP1-Fc = biological target: T5, ULBP1-Fc (UniProt Q9BZM6 26-216); experiment: as above
T5 construct: Bought reagent; also called Ligand-Fc fusion (R&D Systems); not shown: Fc of the bought fusion, not described
T5 sequence (looked up): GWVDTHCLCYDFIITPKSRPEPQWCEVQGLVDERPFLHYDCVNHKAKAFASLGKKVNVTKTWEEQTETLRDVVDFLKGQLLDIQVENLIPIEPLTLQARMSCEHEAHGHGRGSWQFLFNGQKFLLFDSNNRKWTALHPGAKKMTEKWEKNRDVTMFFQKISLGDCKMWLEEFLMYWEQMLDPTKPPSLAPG

ULBP2-Fc = biological target: T6, ULBP2-Fc (UniProt Q9BZM5 26-217); experiment: as above
T6 construct: Bought reagent; also called Ligand-Fc fusion (R&D Systems); not shown: Fc of the bought fusion, not described
T6 sequence (looked up): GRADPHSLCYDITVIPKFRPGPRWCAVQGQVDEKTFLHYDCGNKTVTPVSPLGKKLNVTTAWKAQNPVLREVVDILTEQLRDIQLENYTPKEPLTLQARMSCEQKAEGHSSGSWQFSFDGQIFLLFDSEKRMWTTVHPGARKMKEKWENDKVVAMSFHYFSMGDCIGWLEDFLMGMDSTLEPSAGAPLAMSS

MICA-Fc = biological target: T7, MICA-Fc (UniProt Q29983 24-308); experiment: as above
T7 construct: Bought reagent; also called Ligand-Fc fusion (R&D Systems); not shown: Fc of the bought fusion, not described
T7 sequence (Q29983 24-308 limits assumed): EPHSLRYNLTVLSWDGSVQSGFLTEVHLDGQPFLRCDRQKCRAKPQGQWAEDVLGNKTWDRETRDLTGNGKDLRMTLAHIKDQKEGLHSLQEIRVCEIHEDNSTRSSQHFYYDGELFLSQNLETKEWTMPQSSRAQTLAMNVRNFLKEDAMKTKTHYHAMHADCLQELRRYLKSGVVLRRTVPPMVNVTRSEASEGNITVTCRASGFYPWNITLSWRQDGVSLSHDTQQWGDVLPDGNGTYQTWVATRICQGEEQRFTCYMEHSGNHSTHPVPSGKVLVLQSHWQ

ULBP4-Fc = biological target: T8, ULBP4-Fc (UniProt Q8TD07 31-225, limits assumed); experiment: as above
T8 construct: Bought reagent; also called Ligand-Fc fusion (R&D Systems); not shown: Fc of the bought fusion, not described
T8 sequence (looked up): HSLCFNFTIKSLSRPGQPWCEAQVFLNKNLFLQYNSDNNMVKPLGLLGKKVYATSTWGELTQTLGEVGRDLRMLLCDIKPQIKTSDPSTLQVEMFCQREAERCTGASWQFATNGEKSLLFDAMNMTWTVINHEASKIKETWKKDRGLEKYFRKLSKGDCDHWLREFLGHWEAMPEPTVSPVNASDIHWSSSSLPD

Fc-wtNKG2D [8] = biological target: T2, Fc-wtNKG2D; experiment: Octet BLI; Fc-wtNKG2D captured on AHC tips, two-fold dilution series from 50 nM
Description: as §1

Fc-iNKG2D.YA [9] = biological target: B4; experiment: Octet BLI; Fc-iNKG2D.YA captured on AHC tips, two-fold dilution series from 50 nM
Description: as §1

B1: Rituximab.LC-U2S3 MicAbody (bispecific antibody, human IgG1, kappa, N297A)
heavy: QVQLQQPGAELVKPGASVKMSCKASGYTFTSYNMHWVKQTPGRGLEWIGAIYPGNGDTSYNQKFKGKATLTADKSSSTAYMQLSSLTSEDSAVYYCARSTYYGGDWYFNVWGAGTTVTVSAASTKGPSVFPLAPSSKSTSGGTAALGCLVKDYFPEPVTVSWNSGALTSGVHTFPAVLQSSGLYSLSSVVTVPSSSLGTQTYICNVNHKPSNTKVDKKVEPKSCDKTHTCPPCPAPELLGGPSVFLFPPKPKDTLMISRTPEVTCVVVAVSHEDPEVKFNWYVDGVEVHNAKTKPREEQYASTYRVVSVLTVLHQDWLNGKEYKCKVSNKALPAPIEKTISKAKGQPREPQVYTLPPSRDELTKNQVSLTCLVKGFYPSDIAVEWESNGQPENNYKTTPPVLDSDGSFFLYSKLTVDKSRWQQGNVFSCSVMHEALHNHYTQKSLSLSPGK
light: QIVLSQSPAILSASPGEKVTMTCRASSSVSYIHWFQQKPGSSPKPWIYATSNLASGVPVRFSGSGSGTSYSLTISRVEAEDAATYYCQQWTSNPPTFGGGTKLEIKRTVAAPSVFIFPPSDEQLKSGTASVVCLLNNFYPREAKVQWKVDNALQSGNSQESVTEQDSKDSTYSLSSTLTLSKADYEKHKVYACEVTHQGLSSPVTKSFNRGECAPTSSSGGGGSEPHSLSYDITVIPKFRPGPRWCAVQGQVDEKTFLHYDCGNKTVTPVSPLGKKLNVTTAWKAQNPVLREVVDILTEQLWDIQLENYTPKEPLTLQARMSCEQKAEGHSSGSWQFSFDGQIFLLFDSEKRMWTTVHPGARKMKEKWENDKVVATKLYLWSMGDCIGWLEDFLMGMDSTLEPS
notes: also called Rit-S3; Rit.S3
EC50 (read off the curve) (Fc-iNKG2D.YA [1]): ~0.06 nM
Kd (Fc-iNKG2D.YA [2]): 0.01 nM
EC50 (read off the curve) (mouse NKG2D): ~40 nM
EC50 (read off the curve) (Fc-iNKG2D.YA [3]): ~0.03 nM

B2: His-tagged monomeric U2S3 (ligand)
chain: EPHSLSYDITVIPKFRPGPRWCAVQGQVDEKTFLHYDCGNKTVTPVSPLGKKLNVTTAWKAQNPVLREVVDILTEQLWDIQLENYTPKEPLTLQARMSCEQKAEGHSSGSWQFSFDGQIFLLFDSEKRMWTTVHPGARKMKEKWENDKVVATKLYLWSMGDCIGWLEDFLMGMDSTLEPHHHHHH
notes: also called orthogonal U2S3 ligand
fold higher affinity than wild-type ULBP2 to wtNKG2D (Fc-iNKG2D.YA [4]): 10 fold
Kd (Fc-iNKG2D.YA [5]): 28 nM
binding result (Fc-wtNKG2D [6]): no binding (tested: not printed on the sheet)

B3: Rituximab light-chain fusion of U2S3 (NQ) (bispecific antibody)
heavy: QVQLQQPGAELVKPGASVKMSCKASGYTFTSYNMHWVKQTPGRGLEWIGAIYPGNGDTSYNQKFKGKATLTADKSSSTAYMQLSSLTSEDSAVYYCARSTYYGGDWYFNVWGAGTTVTVSAA
light: QIVLSQSPAILSASPGEKVTMTCRASSSVSYIHWFQQKPGSSPKPWIYATSNLASGVPVRFSGSGSGTSYSLTISRVEAEDAATYYCQQWTSNPPTFGGGTKLEIKRTVAAPSVFIFPPSDEQLKSGTASVVCLLNNFYPREAKVQWKVDNALQSGNSQESVTEQDSKDSTYSLSSTLTLSKADYEKHKVYACEVTHQGLSSPVTKSFNRGECAPTSSSGGGGSEPHSLSYDITVIPKFRPGPRWCAVQGQVDEKTFLHYDCGQKTVTPVSPLGKKLQVTTAWKAQNPVLREVVDILTEQLWDIQLENYTPKEPLTLQARMSCEQKAEGHSSGSWQFSFDGQIFLLFDSEKRMWTTVHPGARKMKEKWENDKVVATKLYLWSMGDCIGWLEDFLMGMDSTLEPS
notes: also called Rit.NQ; Rit.S3.NQ; not shown: human IgG1 heavy-chain constant region, ADCC-deficient
EC50 (read off the curve) (Fc-iNKG2D.YA [1]): ~0.04 nM
binding result (Fc-wtNKG2D [7]): no binding

B4
binding result (MICB-Fc): no binding (tested: about 2000 nM)
binding result (ULBP3-Fc): no binding (tested: about 2000 nM)
binding result (ULBP1-Fc): no binding (tested: about 2000 nM)
binding result (ULBP2-Fc): no binding (tested: about 2000 nM)
binding result (MICA-Fc): no binding (tested: about 2000 nM)
binding result (ULBP4-Fc): no binding (tested: about 2000 nM)

B5: Rituximab antibody (ADCC-deficient) (antibody, V domains shown)
VH: QVQLQQPGAELVKPGASVKMSCKASGYTFTSYNMHWVKQTPGRGLEWIGAIYPGNGDTSYNQKFKGKATLTADKSSSTAYMQLSSLTSEDSAVYYCARSTYYGGDWYFNVWGAGTTVTVSA
VL: QIVLSQSPAILSASPGEKVTMTCRASSSVSYIHWFQQKPGSSPKPWIYATSNLASGVPVRFSGSGSGTSYSLTISRVEAEDAATYYCQQWTSNPPTFGGGTKLEIK
notes: also called parent rituximab antibody; Rit.P; not shown: human IgG1 heavy-chain constant region, ADCC-deficient
binding result (Fc-wtNKG2D [8]): no binding (tested: 50 nM)
binding result (Fc-iNKG2D.YA [9]): no binding (tested: 50 nM)
